Results: patent publication US20240294646A1

How the values were obtained:
FcγRIIb [1] = target: FcγRIIb (UniProt P31994); experiment: SPR (Protocol 2); ratio of the fold for FcγRIIb to the fold for FcγRIIaR
FcγRIIb [2] = target: FcγRIIb (UniProt P31994); experiment: SPR (Protocol 2), antibody captured on immobilised HER2, receptor as analyte
FcγRIIaR = FcγRIIaR (UniProt P12318); experiment: as above
C1q (human) = C1q (human) (UniProt P02745); experiment: ELISA; antibody coated, human C1q added, signal as % of WT
[3] = target: Soluble FcγRIIb extracellular domain with C-terminal 10xHis tag (UniProt P31994); experiment: SPR; FcγRIIb affinity fold against control v27294
[4] = target: Soluble FcγRIIb extracellular domain with C-terminal 10xHis tag (UniProt P31994); experiment: SPR; IIb/IIaR selectivity against control v27294
[5] = target: Soluble FcγRIIb extracellular domain with C-terminal 10xHis tag (UniProt P31994); experiment: SPR, antibody captured on HER2, receptor as analyte; affinity fold over wild-type v16463
[6] = target: Soluble FcγRIIaR extracellular domain with C-terminal 10xHis tag (UniProt P12318); experiment: as above
[7] = target: Soluble FcγRIIb extracellular domain with C-terminal 10xHis tag (UniProt P31994); experiment: SPR; IIb-Fold / IIaR-Fold (FcγRIIb over FcγRIIaR)

Chain of FcγRIIb (P31994 43-217): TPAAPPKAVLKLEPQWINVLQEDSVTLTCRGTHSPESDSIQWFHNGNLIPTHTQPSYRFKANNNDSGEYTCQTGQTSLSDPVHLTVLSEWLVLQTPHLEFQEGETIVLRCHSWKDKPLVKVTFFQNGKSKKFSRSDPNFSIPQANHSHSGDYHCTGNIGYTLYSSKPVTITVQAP
Chain of FcγRIIaR (P12318 34-217): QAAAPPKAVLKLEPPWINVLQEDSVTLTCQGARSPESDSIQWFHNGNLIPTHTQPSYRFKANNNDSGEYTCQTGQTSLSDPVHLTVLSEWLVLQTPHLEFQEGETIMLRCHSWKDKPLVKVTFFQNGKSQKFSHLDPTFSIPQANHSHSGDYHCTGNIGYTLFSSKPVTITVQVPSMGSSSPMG
Chain of Soluble FcγRIIaR extracellular domain with C-terminal 10xHis tag (P12318 other isoform, or with tags, fused parts or gaps): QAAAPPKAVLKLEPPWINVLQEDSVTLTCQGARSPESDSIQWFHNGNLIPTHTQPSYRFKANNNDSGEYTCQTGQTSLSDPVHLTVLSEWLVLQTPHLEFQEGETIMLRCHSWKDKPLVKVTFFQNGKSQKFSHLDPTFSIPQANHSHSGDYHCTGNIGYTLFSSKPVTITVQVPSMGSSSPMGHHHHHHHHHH
Chain of C1q (human) (P02745 23-245 limits assumed, chain 1 of 3): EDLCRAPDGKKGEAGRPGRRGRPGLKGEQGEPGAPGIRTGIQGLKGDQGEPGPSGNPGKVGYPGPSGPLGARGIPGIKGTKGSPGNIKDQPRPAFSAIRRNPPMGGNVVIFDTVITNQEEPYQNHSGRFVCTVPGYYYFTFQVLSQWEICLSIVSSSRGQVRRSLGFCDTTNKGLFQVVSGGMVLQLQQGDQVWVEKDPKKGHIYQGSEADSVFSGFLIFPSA
Chain of C1q (human) (P02746 28-253 limits assumed, chain 2 of 3, further chain): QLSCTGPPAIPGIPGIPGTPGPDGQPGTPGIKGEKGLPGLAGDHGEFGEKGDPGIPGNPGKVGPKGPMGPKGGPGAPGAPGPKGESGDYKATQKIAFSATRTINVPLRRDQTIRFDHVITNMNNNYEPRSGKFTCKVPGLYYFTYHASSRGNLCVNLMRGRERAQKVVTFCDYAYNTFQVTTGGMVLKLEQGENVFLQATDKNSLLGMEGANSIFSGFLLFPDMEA
Chain of C1q (human) (P02747 29-245 limits assumed, chain 3 of 3, further chain): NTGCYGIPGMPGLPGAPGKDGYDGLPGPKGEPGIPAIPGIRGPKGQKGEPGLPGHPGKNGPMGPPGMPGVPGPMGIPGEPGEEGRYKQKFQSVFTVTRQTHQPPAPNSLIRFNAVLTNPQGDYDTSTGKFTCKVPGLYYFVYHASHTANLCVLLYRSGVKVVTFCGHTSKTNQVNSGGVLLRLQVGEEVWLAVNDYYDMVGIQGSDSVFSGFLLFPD
Chain of Soluble FcγRIIb extracellular domain with C-terminal 10xHis tag (P31994 other isoform, or with tags, fused parts or gaps): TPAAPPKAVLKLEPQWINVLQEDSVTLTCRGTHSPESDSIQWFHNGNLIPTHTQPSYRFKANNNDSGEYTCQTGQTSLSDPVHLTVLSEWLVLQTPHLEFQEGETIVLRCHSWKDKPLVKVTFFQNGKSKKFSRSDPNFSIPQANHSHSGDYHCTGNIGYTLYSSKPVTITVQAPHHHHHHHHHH

## Variant 19521 (chain A: G236N / chain B: G236D_S239D_H268D), one-armed trastuzumab antibody, Scaffold 2
FcγRIIb [1]
  IIb/IIaR Selectivity (IIb-Fold/IIaR-Fold): 6.8
FcγRIIb [2]
  IIb-Fold (fold change in affinity over wild-type) (fold over wild-type): 37.6
FcγRIIaR
  IIaR-Fold (fold change in affinity over wild-type) (fold over wild-type): 5.5

## Variant 19523 (chain A: G236D / chain B: G236N_S239D_H268D), one-armed trastuzumab antibody, Scaffold 2
FcγRIIb [1]
  IIb/IIaR Selectivity (IIb-Fold/IIaR-Fold): 3.6
FcγRIIb [2]
  IIb-Fold (fold change in affinity over wild-type) (fold over wild-type): 6.9
FcγRIIaR
  IIaR-Fold (fold change in affinity over wild-type) (fold over wild-type): 1.9

## Variant 16493 (chain A: G236N / chain B: G236N), one-armed trastuzumab antibody, Scaffold 2
FcγRIIb [1]
  IIb/IIaR Selectivity (IIb-Fold/IIaR-Fold): 3.1
FcγRIIb [2]
  IIb-Fold (fold change in affinity over wild-type) (fold over wild-type): 0.8
FcγRIIaR
  IIaR-Fold (fold change in affinity over wild-type) (fold over wild-type): 0.3

## Variant 19515 (chain A: G236Q / chain B: S239D_H268D), one-armed trastuzumab antibody, Scaffold 2
FcγRIIb [1]
  IIb/IIaR Selectivity (IIb-Fold/IIaR-Fold): 0.7
FcγRIIb [2]
  IIb-Fold (fold change in affinity over wild-type) (fold over wild-type): 9.6
FcγRIIaR
  IIaR-Fold (fold change in affinity over wild-type) (fold over wild-type): 14.2

## Variant 19524 (chain A: G236Q / chain B: G236D_S239D_H268D), one-armed trastuzumab antibody, Scaffold 2
FcγRIIb [1]
  IIb/IIaR Selectivity (IIb-Fold/IIaR-Fold): 1.2
FcγRIIb [2]
  IIb-Fold (fold change in affinity over wild-type) (fold over wild-type): 10.3
FcγRIIaR
  IIaR-Fold (fold change in affinity over wild-type) (fold over wild-type): 8.9

## Variant 19526 (chain A: G236D / chain B: G236K_S239D_H268D), one-armed trastuzumab antibody, Scaffold 2
FcγRIIb [1]
  IIb/IIaR Selectivity (IIb-Fold/IIaR-Fold): 3.5
FcγRIIb [2]
  IIb-Fold (fold change in affinity over wild-type) (fold over wild-type): 1.4
FcγRIIaR
  IIaR-Fold (fold change in affinity over wild-type) (fold over wild-type): 0.4

## Variant 19514 (chain A: none / chain B: G236H_S239D_H268D), one-armed trastuzumab antibody, Scaffold 2
FcγRIIb [1]
  IIb/IIaR Selectivity (IIb-Fold/IIaR-Fold): 1.7
FcγRIIb [2]
  IIb-Fold (fold change in affinity over wild-type) (fold over wild-type): 4.2
FcγRIIaR
  IIaR-Fold (fold change in affinity over wild-type) (fold over wild-type): 2.5

## Variant 19528 (chain A: G236N / chain B: G236S_S239D_H268D), one-armed trastuzumab antibody, Scaffold 2
FcγRIIb [1]
  IIb/IIaR Selectivity (IIb-Fold/IIaR-Fold): 2.8
FcγRIIb [2]
  IIb-Fold (fold change in affinity over wild-type) (fold over wild-type): 18.6
FcγRIIaR
  IIaR-Fold (fold change in affinity over wild-type) (fold over wild-type): 6.7

## Variant 19511 (chain A: G236N_G237F / chain B: S239D_H268D), one-armed trastuzumab antibody, Scaffold 2
FcγRIIb [1]
  IIb/IIaR Selectivity (IIb-Fold/IIaR-Fold): 1.2
FcγRIIb [2]
  IIb-Fold (fold change in affinity over wild-type) (fold over wild-type): 7.1
FcγRIIaR
  IIaR-Fold (fold change in affinity over wild-type) (fold over wild-type): 5.7

## Variant 19504 (chain A: G236N_G237F / chain B: G236N_G237F), one-armed trastuzumab antibody, Scaffold 2
FcγRIIb [1]
  IIb/IIaR Selectivity (IIb-Fold/IIaR-Fold): 3.3
FcγRIIb [2]
  IIb-Fold (fold change in affinity over wild-type) (fold over wild-type): 0.2
FcγRIIaR
  IIaR-Fold (fold change in affinity over wild-type) (fold over wild-type): 0.05

## Variant 32263 (trastuzumab FSA; chain A L235A_strat1, chain B G330*K_strat1) (antibody)
C1q (human)
  C1q Binding (% WT): 170 % WT

## Variant 19520 (chain A: none / chain B: G236E_S239D_H268D), one-armed trastuzumab antibody, Scaffold 2
FcγRIIb [1]
  IIb/IIaR Selectivity (IIb-Fold/IIaR-Fold): 1.5
FcγRIIb [2]
  IIb-Fold (fold change in affinity over wild-type) (fold over wild-type): 26.5
FcγRIIaR
  IIaR-Fold (fold change in affinity over wild-type) (fold over wild-type): 17.5

## Variant 32256 (trastuzumab FSA; chain A A237D_strat1, chain B G330*K_strat1) (antibody)
C1q (human)
  C1q Binding (% WT): 124 % WT

## Variant 19503 (chain A: G236N_G237A / chain B: G236N_G237A), one-armed trastuzumab antibody, Scaffold 2
FcγRIIb [1]
  IIb/IIaR Selectivity (IIb-Fold/IIaR-Fold): 4.5
FcγRIIb [2]
  IIb-Fold (fold change in affinity over wild-type) (fold over wild-type): 0.2
FcγRIIaR
  IIaR-Fold (fold change in affinity over wild-type) (fold over wild-type): 0.04

## Variant 19527 (chain A: G236N / chain B: G236K_S239D_H268D), one-armed trastuzumab antibody, Scaffold 2
FcγRIIb [1]
  IIb/IIaR Selectivity (IIb-Fold/IIaR-Fold): 6
FcγRIIb [2]
  IIb-Fold (fold change in affinity over wild-type) (fold over wild-type): 1.2
FcγRIIaR
  IIaR-Fold (fold change in affinity over wild-type) (fold over wild-type): 0.2

## Variant 19518 (chain A: none / chain B: G236D_S239D_H268D), one-armed trastuzumab antibody, Scaffold 2
FcγRIIb [1]
  IIb/IIaR Selectivity (IIb-Fold/IIaR-Fold): 2.2
FcγRIIb [2]
  IIb-Fold (fold change in affinity over wild-type) (fold over wild-type): 32.9
FcγRIIaR
  IIaR-Fold (fold change in affinity over wild-type) (fold over wild-type): 14.7

## Variant 32273 (trastuzumab FSA; chain A L235R_strat2, chain B G237L_strat2) (antibody)
C1q (human)
  C1q Binding (% WT): 2 % WT

## Variant 19510 (chain A: G236N_G237A / chain B: S239D_H268D), one-armed trastuzumab antibody, Scaffold 2
FcγRIIb [1]
  IIb/IIaR Selectivity (IIb-Fold/IIaR-Fold): 3.1
FcγRIIb [2]
  IIb-Fold (fold change in affinity over wild-type) (fold over wild-type): 5.5
FcγRIIaR
  IIaR-Fold (fold change in affinity over wild-type) (fold over wild-type): 1.8

## Variant 19508 (chain A: none / chain B: S239D_H268D), one-armed trastuzumab antibody, Scaffold 2
FcγRIIb [1]
  IIb/IIaR Selectivity (IIb-Fold/IIaR-Fold): 1.2
FcγRIIb [2]
  IIb-Fold (fold change in affinity over wild-type) (fold over wild-type): 31.1
FcγRIIaR
  IIaR-Fold (fold change in affinity over wild-type) (fold over wild-type): 25.6

## Variant 19519 (chain A: G236E / chain B: S239D_H268D), one-armed trastuzumab antibody, Scaffold 2
FcγRIIb [1]
  IIb/IIaR Selectivity (IIb-Fold/IIaR-Fold): 0.3
FcγRIIb [2]
  IIb-Fold (fold change in affinity over wild-type) (fold over wild-type): 10.3
FcγRIIaR
  IIaR-Fold (fold change in affinity over wild-type) (fold over wild-type): 30.9

## Variant 19694 (chain A: none / chain B: G236D_G237F_S239D_H268D), one-armed trastuzumab antibody, Scaffold 2
FcγRIIb [1]
  IIb/IIaR Selectivity (IIb-Fold/IIaR-Fold): 2.9
FcγRIIb [2]
  IIb-Fold (fold change in affinity over wild-type) (fold over wild-type): 53.5
FcγRIIaR
  IIaR-Fold (fold change in affinity over wild-type) (fold over wild-type): 18.2

## Variant 19507 (chain A: G236E / chain B: G236E), one-armed trastuzumab antibody, Scaffold 2
FcγRIIb [1]
  IIb/IIaR Selectivity (IIb-Fold/IIaR-Fold): 0.4
FcγRIIb [2]
  IIb-Fold (fold change in affinity over wild-type) (fold over wild-type): 0.8
FcγRIIaR
  IIaR-Fold (fold change in affinity over wild-type) (fold over wild-type): 1.8

## Variant 19525 (chain A: G236D / chain B: G236Q_S239D_H268D), one-armed trastuzumab antibody, Scaffold 2
FcγRIIb [1]
  IIb/IIaR Selectivity (IIb-Fold/IIaR-Fold): 3.7
FcγRIIb [2]
  IIb-Fold (fold change in affinity over wild-type) (fold over wild-type): 7.7
FcγRIIaR
  IIaR-Fold (fold change in affinity over wild-type) (fold over wild-type): 2.1

## Variant 19509 (chain A: G236N / chain B: S239D_H268D), one-armed trastuzumab antibody, Scaffold 2
FcγRIIb [1]
  IIb/IIaR Selectivity (IIb-Fold/IIaR-Fold): 3.3
FcγRIIb [2]
  IIb-Fold (fold change in affinity over wild-type) (fold over wild-type): 31.8
FcγRIIaR
  IIaR-Fold (fold change in affinity over wild-type) (fold over wild-type): 9.7

## Variant 16490 (chain A: G236D / chain B: G236D), one-armed trastuzumab antibody, Scaffold 2
FcγRIIb [1]
  IIb/IIaR Selectivity (IIb-Fold/IIaR-Fold): 2.4
FcγRIIb [2]
  IIb-Fold (fold change in affinity over wild-type) (fold over wild-type): 2.1
FcγRIIaR
  IIaR-Fold (fold change in affinity over wild-type) (fold over wild-type): 0.9

## Variant 19513 (chain A: G236H / chain B: S239D_H268D), one-armed trastuzumab antibody, Scaffold 2
FcγRIIb [1]
  IIb/IIaR Selectivity (IIb-Fold/IIaR-Fold): 0.6
FcγRIIb [2]
  IIb-Fold (fold change in affinity over wild-type) (fold over wild-type): 8.2
FcγRIIaR
  IIaR-Fold (fold change in affinity over wild-type) (fold over wild-type): 13.4

## Variant 19531 (chain A: G236D / chain B: G236H_S239D_H268D), one-armed trastuzumab antibody, Scaffold 2
FcγRIIb [1]
  IIb/IIaR Selectivity (IIb-Fold/IIaR-Fold): 2.3
FcγRIIb [2]
  IIb-Fold (fold change in affinity over wild-type) (fold over wild-type): 3.7
FcγRIIaR
  IIaR-Fold (fold change in affinity over wild-type) (fold over wild-type): 1.6

## Variant 19512 (chain A: none / chain B: G236N_S239D_H268D), one-armed trastuzumab antibody, Scaffold 2
FcγRIIb [1]
  IIb/IIaR Selectivity (IIb-Fold/IIaR-Fold): 2.5
FcγRIIb [2]
  IIb-Fold (fold change in affinity over wild-type) (fold over wild-type): 7.9
FcγRIIaR
  IIaR-Fold (fold change in affinity over wild-type) (fold over wild-type): 3.2

## Variant v26731, A_P271L_strat2, one-armed trastuzumab antibody
[3]
  IIb-Fold wrt Control: 0.7 fold
[4]
  IIb Selectivity Improvement wrt Control: 1.1 fold
[5]
  IIb-Fold: 66.6 fold
[6]
  IIaR-fold: 4.5 fold
[7]
  IIb Selectivity: 14.7 fold

## Variant 19699 (chain A: G236D_G237F / chain B: G236D_G237F), one-armed trastuzumab antibody, Scaffold 2
FcγRIIb [1]
  IIb/IIaR Selectivity (IIb-Fold/IIaR-Fold): 7
FcγRIIb [2]
  IIb-Fold (fold change in affinity over wild-type) (fold over wild-type): 2.1
FcγRIIaR
  IIaR-Fold (fold change in affinity over wild-type) (fold over wild-type): 0.3

## Variant v26754, A_E272S_strat2, one-armed trastuzumab antibody
[3]
  IIb-Fold wrt Control: 0.7 fold
[4]
  IIb Selectivity Improvement wrt Control: 1.1 fold
[5]
  IIb-Fold: 61 fold
[6]
  IIaR-fold: 4.1 fold
[7]
  IIb Selectivity: 14.7 fold

## Variant 19517 (chain A: G236D / chain B: S239D_H268D), one-armed trastuzumab antibody, Scaffold 2
FcγRIIb [1]
  IIb/IIaR Selectivity (IIb-Fold/IIaR-Fold): 2.6
FcγRIIb [2]
  IIb-Fold (fold change in affinity over wild-type) (fold over wild-type): 30.5
FcγRIIaR
  IIaR-Fold (fold change in affinity over wild-type) (fold over wild-type): 11.6

## Variant v26760, A_E272H_strat2, one-armed trastuzumab antibody
[3]
  IIb-Fold wrt Control: 0.8 fold
[4]
  IIb Selectivity Improvement wrt Control: 1.1 fold
[5]
  IIb-Fold: 74.1 fold
[6]
  IIaR-fold: 4.9 fold
[7]
  IIb Selectivity: 15.3 fold
